Data: publication PMC2731815

Assays:
[1] = target: Fl-FPR-inhibited thrombin (UniProt P00734); experiment: other fluorescence titration
[2] = target: thrombomodulin fragment 4-6 (TM4-6); experiment: competition in a kinetic assay

| Kd [1] [nM] | Kd [2] [nM] | Substance |
| --- | --- | --- |
| 3.5 |  | thrombomodulin fragment 4-6 (TM4-6) (domain or fragment) |
|  | 9 | Ser-195 to Ala (S195A) substitution mutant of thrombin (from UniProt P00734 44-622) (enzyme) |
